Experimental findings from paper doi:10.1101/2022.09.27.509696 (bioRxiv, 2022) are described below.

Broadly, the Kd is a measure of binding affinity in units of concentration. By IC50 is commonly meant the concentration needed to halve the response being measured. High values mean lower potency, low ones higher potency.

Holding throughout (assay): split reporter
Assay [1] deals with T1, sLgBiT-GPR83 (N-terminally sLgBiT-fused mature human GPR83) (human, UniProt Q9NYM4-1 17-423).
Assay [2] addresses T1, sLgBiT-GPR83 (N-terminally sLgBiT-fused …). This is another data set of the same source.
For assay [3] the target is unchanged. This is another data set of the same source.

Where “and” joins values, the source holds several entries; their conditions need not be identical. Equal values may be shown once.

T1 sequence (Q9NYM4 17-423): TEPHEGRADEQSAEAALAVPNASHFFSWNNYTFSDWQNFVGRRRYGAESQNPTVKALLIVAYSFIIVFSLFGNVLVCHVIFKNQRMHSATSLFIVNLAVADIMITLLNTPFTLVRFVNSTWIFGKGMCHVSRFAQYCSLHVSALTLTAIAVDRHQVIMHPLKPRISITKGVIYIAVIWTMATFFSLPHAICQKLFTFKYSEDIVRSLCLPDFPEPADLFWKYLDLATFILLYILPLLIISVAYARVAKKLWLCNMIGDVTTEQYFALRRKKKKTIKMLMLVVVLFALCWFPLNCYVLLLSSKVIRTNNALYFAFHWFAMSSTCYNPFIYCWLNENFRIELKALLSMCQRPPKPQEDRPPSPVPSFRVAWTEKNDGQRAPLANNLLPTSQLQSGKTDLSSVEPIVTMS

B1: SmBiT-FAM237A (ligand)
chain: HSQTDLLALSQADPQCWESSSVLLLEMWKPRVSNTVSGFWDFMIYLKSSENLKHGALFWDLAQLFWDIYVDCVLSRNHGL
For B1, the Kd in assay [1] was ~70 nM. For the same molecule, in assay [2], the association half-life is ~3 min and the dissociation half-life is ~7.5 min.

B2: mature human FAM237A (family with sequence similarity 237 member A) (ligand)
chain: B1 chain
modifications: amidated C-terminus; one intramolecular disulfide bond
For B2, the IC50 in assay [3] was 13.5 nM and 12.9 nM and 16.9 nM.
